These results are taken from PMC3268394 (The Journal of Biological Chemistry, 2011).

Assay [1] has as its target ubiquitin (UniProt P0CG48 1-76). In words: pull-down.
In assay [2] the target is T1, HDAC6 ZnF-UBP domain (1109–1215), His tag cleaved (UniProt Q9UBN7 1109-1215).
T1 sequence: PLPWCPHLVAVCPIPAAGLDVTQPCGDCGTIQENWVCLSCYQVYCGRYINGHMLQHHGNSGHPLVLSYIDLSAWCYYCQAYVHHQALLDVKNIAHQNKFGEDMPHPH
Description: crystal structure.

B1: His-tagged UBP domain of USP5 (171–290) (domain or fragment)
chain: GEVRQVSKHAFSLKQLDNPARIPPCGWKCSKCDMRENLWLNLTDGSILCGRRYFDGSGGNNHAVEHYRETGYPLAVKLGTITPDGADVYSYDEDDMVLDPSLAEHLSHFGIDMLKMQKTD
Take B1: the binding result in assay [1] is recorded as “binds”.

B2: ubiquitin C-terminal pentapeptide RLRGG (peptide)
peptide: RLRGG
For the molecule B2, in assay [2], the binding result is recorded as “binds”.
